According to the RNAGym collection of RNA variant scans (doi:10.1073/pnas.2313332121):

B1: TPR t1 (parent)
chain: GACCAAUCUGCCCUCAGAGCUCGAGAACAUCUUCGGAUGCAGAGGAGGCAGGCUUCGGUGGCGCGAUAGCGCCAACGUCCUCAACCUCCAAUGCAUCCCACCACAUGAUGAUGCCUGAAGAGCCUUGGUUUUUUG

Variants of: B1
Assay: polymerase ribozyme fitness, log enrichment relative to wild type (log ratio); higher = more active; in vitro selection for triplet polymerase activity
Summary of the method: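 Mutant libraries of both subunits of a heterodimeric triplet polymerase ribozyme were PCR-built, transcribed, and selected once in triplicate, with frozen incubation at −7 °C and capture of gel-excised extended constructs on streptavidin beads before RT-PCR. Illumina sequencing of input and output libraries was filtered to genotypes with ≥10 input reads and ≥1 read per output. Fitness is the logarithm of genotype enrichment over wild-type enrichment, using inverse-variance-weighted replicate averages. The logarithm is base 2.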

| Variant | polymerase ribozyme fitness (log ratio) |
| --- | --- |
| C3U C12U A18U U87A C88U | -2.52 |
| C3U C70U G113C | -3.44 |
| C4A C12A C13A A18U G44A G51A U59A U87A G110C G120A U126G | -7.29 |
| C3U G39A G69U A105C G120U G128C | -3.77 |
| C4A U87G | -1.28 |
| C4G A6C C8G G48U C72G C76G A95U C124U | -4.99 |
| C4G C8G A50U G113C C115U | -5.07 |
| C3U C49U | -1.18 |
| C3U C49A | 0.209 |
| C3U C49G | -1.16 |
| C3U G63C G110A | -2.26 |
| C3U C53U G117U A118G | -0.935 |
| C4G C8A C89A G120C | -0.0855 |
| C4G C56U | -1.92 |
| C4A U87C G120A G127A | -0.66 |
| C4G A26U A75U | -4.4 |
| C3U U7G C20U U21G G71U G110U C124G | -5.25 |
| C4A A18G G71U C89A A100C G113A C124U | -4.08 |
| C3U G52A | -0.0464 |
| C3U C11U G71A A119G | -0.255 |
| C4G C11A G71A C89U A111U U112A C123A G127C | -2.11 |
| C4G C102A | -3.83 |
| C4A C13U C124A | 0.115 |
| C4A G63C G77C G128U | -3.69 |

| Variant | polymerase ribozyme fitness (log ratio) |
| --- | --- |
| C3U C11A G47A G110U | -3.77 |
| C3U G36C G58C U112G | -0.836 |
| C3U U59G G113A | -1.89 |
| C4G C13U C20G A27U G71U U106A U125G | -5.01 |
| C3U C12A U87C C124U | -0.256 |
| C4A G110A | -2.19 |
| C4G A46U G47A | -4.4 |
| C3U G48A G60C G113A | -1.14 |
| C3U G48A C97A | -5.8 |
| C3U C49A U92A G113A | -2.63 |
| C3U C12A U21C G36A G63U | -3.34 |
| C3U C20G C53A C97U U109A | -3.06 |
| C3U G39U G61A G93C C101A | -3.7 |
| C3U C31G G120C | -6.61 |
| C3U C40U C62U A75U G93C U96G | -3.29 |
| C3U C85U | -1.43 |
| C3U G61C | -2.38 |
| C3U G61A | -0.131 |
| C3U C22G | -3.12 |
| C3U C22U | -3.6 |
| C4A G10C C98U G117A A121U | -4.42 |
| C3U U78C | 0.0101 |
| C4A U7A G71A | -1.76 |
| C3U G69U A121G U125A | 2.91 |

| Variant | polymerase ribozyme fitness (log ratio) |
| --- | --- |
| C4A U9A C72A U78C | -0.731 |
| C4G C8G G44A U131G | -3.14 |
| C3U G23A | -5.54 |
| C4A U7G G35U G63C G65U C98U G117U | -6 |
| C3U G117A U126A | -5.16 |
| C4A C12A C70U C86G G120U G128C | -2.75 |
| C4G A27U G36C C49G C79U C123G | -5.37 |
| C3U C13A G69U A121G | 1.51 |
| C4A G10U A84G | -2.55 |
| C4A C56A G69U A90C | -2.84 |
| C3U G17C C22A A29G G45A G69U C89U | -3.84 |
| C3U A100C G135C | -2.44 |
| C4A C73U | -1.49 |
| C4A C40U C114U | -4.58 |
| C4G C101U | -2.36 |
| C4G C12A G45A G71U A100U U106A | -2.68 |
| C4A A46U C56U C72G C123G | -4.32 |
| C3U G60C | -0.334 |
| C3U G60A | -0.489 |
| C3U G93U | -1.95 |
| C4G G36U A90C C124U | -3.18 |
| C3U C56U | -0.891 |
| C4G C15U G47C C73U A105U G107U C123G U126A | -7.47 |
| C4A A90U | -2.78 |

| Variant | polymerase ribozyme fitness (log ratio) |
| --- | --- |
| C4A C64U | -1.24 |
| C4A U78A G93C C115A | -2.87 |
| C3U C28U A41G A43U A46C U92C C94U C124U | -4.65 |
| C4G C62A C99A G113U | -6.39 |
| C3U U9A C123A | 1.32 |
| C4A A29G U30C A74C A121U | -3.71 |
| C4G A6U A27U A111U | -4.8 |
| C4A C8G A18C G23C U112G U116A | -5.14 |
| C4G C104U | -0.878 |
| C3U G45C G61A | 0.0995 |
| C4A G71A A84C G117U | -6.14 |
| C3U U54G A75G U92C | -2.3 |
| C4G A29G A74C A83U | -4.38 |
| C3U C13U C104A | -1.31 |
| C4A U7G A91U | -4.91 |
| C4A U59C A90C | -3.84 |
| C3U C13U C70U G128U | -1.99 |
| C3U C53A G71A U78A | -0.343 |
| C3U G57C C62U C97U A108G C123U C124G | -1.18 |
| C3U C34G G63U | -6.26 |
| C3U C86U C101G | -1.68 |
| C4G C72A C85G C104U | -2.16 |
| C4G C13A G60A A66G C85A A121C | -2.37 |
| C3U U54C G61A A90C | -0.844 |

| Variant | polymerase ribozyme fitness (log ratio) |
| --- | --- |
| C3U C11U U54G | -1.05 |
| C3U U112A G120U U125G | -2.25 |
| C4A A24G | -4.5 |
| C4A C102U C123A | -3.39 |
| C4A C20A | -4.2 |
| C3U C20A | -2.93 |
| C3U C72U C76U C85U U116G C124U U129C | -6.12 |
| C3U C12G C13U C62U G120A | 2.11 |
| C3U A91U C115U | -1.86 |
| C4A G52A C53A A90U U130C | -3.34 |
| C4G C123A | -0.461 |
| C4G C13U C31G C34G G63A C79U G113U | -7.83 |
| C4A A18C A43U C72A | -3.77 |
| C4G A5U C8U C101G C104U | -3.99 |
| C4A C11G A16G G36C C56U G113U | -2.81 |
| C4G A18U G25C C62A A111U | -6.22 |
| C3U U55G | -0.611 |
| C3U U9A G69C C82A | -1.37 |
| C3U G17U G63U C73U | -4.23 |
| C3U G44U C73G U125A | -2.29 |
| C3U G107A C124G G128A U133G | -4.53 |
| C3U C86G | -2.21 |
| C3U C104A | -2.21 |
| C3U C104U | -0.0507 |

| Variant | polymerase ribozyme fitness (log ratio) |
| --- | --- |
| C4A C72G | -1.81 |
| C4A C8A G36A C72G C99G C104A C124U | -6.92 |
| C3U C4A C53G C62U C88U A90C C123A U130C | -0.74 |
| C4A G60U G127A | -2.51 |
| C4A C8U | -0.352 |
| C4G C73U U92C | -2.66 |
| C4G A41U | -2.07 |
| C4A U59A C88A | -2.43 |
| C4A A84C C115U G135U | -3.92 |
| C4A C8G G36U G45U U78A C114U | -5.41 |
| C4A A50G C70U A84C C115A | -2.59 |
| C3U U9G | 0.724 |
| C3U G39A C40U G60C C94A | -2.98 |
| C4G G17U C53U C56A | -3.68 |
| C3U U7A A37C G71C | -0.976 |
| C3U C15U G63A C101A | -3.66 |
| C4A C12G G117A G128C | -1.61 |
| C3U G93A C102U | -2.82 |
| C4A G52C C114U | -6.04 |
| C4G C73A | -1.43 |
| C4A C72A C114U C124A | -2.33 |
| C3U C40U U78C G113A G120A C123A | -2.82 |
| C3U G60A U92A | -3.06 |
| C3U U7G G42U | -1.73 |

| Variant | polymerase ribozyme fitness (log ratio) |
| --- | --- |
| C3U G52U G57U C82A G122A | -3.12 |
| C3U G69C U87G C124A | 0.486 |
| C3U C13A G61A C98U | -3.6 |
| C3U G48U | -0.574 |
| C3U G48A | -1.92 |
| C3U C11U G39C G71A A119G | -0.917 |
| C3U C56G C79A C124G | -0.114 |
| C3U G39A G69A A105C G120U G128C | -6.86 |
| C3U A105U | -1.94 |
| C4A A119C G120A G127U | -0.47 |
| C3U C28U | -2.28 |
| C3U C62A C115A U125G | -1.86 |
| C4A A16C C72A C101A C124U U130A | -4.51 |
| C4A C40U C53U G57U A83C G113U | -5.8 |
| C3U G48U C49G C99U | -4.65 |
| C4A A6C A46C C49A C72G A84C A119U C123A U126G | -2.77 |
| C3U C11G U21A U129A | -0.924 |
| C4A U7C C49G A50U C88G | -2.88 |
| C4A C8A U9C C82U C114U | -2.35 |
| C4A G17A C53G C70G U106G G113A C115U U131A | -6.14 |
| C3U C13U A37C C70A | -1.1 |
| C4G A5U C76U | -2.75 |
| C3U C28A C72G U112A | -3.66 |
